± gives the uncertainty stated by the source.

This series in a line: amyloid nucleation score (Sup35N fusion, yeast selection) (log enrichment); library NNK1; higher = more nucleation; inactive = no reads after selection. In a few lines: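 Using DiMSum, nucleation scores were taken as the log enrichment of output over input reads, centred on the mode score of non-aggregating sequences. The input and output reads came from Illumina sequencing of plasmid inserts, with sequences under 100 input reads excluded. The yeast were psi-negative, expressed Sup35N fused to peptides of 20 random codons, were induced with 100 μM copper sulfate for 24 hours, and were grown 7 days at 30°C on medium lacking adenine and uracil.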
On to ILFMLECGMSTTSCHKIRVC, for which the amyloid nucleation score is -0.157 ± 0.36.
Next, LDASRNFVLLFS: 0.784 ± 0.34; GNFHQPFFLMVVFQHARAPL: 6.291 ± 0.054; RYGAESELTPRSASHGYWKF: -0.313 ± 1.1.
The same measure for RQFRIGNYENFATREWALGL: 1.7 ± 0.14.
Next, AGYVWAKSSKDVKFYVLDM: 2.85 ± 0.17; CSLILALPN: 0.951 ± 0.6; YTVTCYCGSDTWSKMLAKVF: -1.16 ± 2.4.
KSLMRTTMSCQSDYEDQKDV yielded an amyloid nucleation score of 0.883 ± 0.78.
In the case of DIGAVIAWSNRLVWLQPTLL, the amyloid nucleation score was -0.506 ± 0.84.
Substance TFSHWPLWNVYRSFAFTCRP had an amyloid nucleation score of 0.871 ± 0.47.
On to LGYEGWYTRVIYGKVALWME, for which the amyloid nucleation score was -0.215 ± 0.59.
The same measure for FYIVCRNFKTYLPSLGF: -1.12 ± 2.4; for SLQPVYAATCSSFHYSFFAG: 4.89 ± 0.074.
Next, LASEHNGASLICTLACTYLW: -0.642 ± 1; LYNTITRDTTPHGVEN: -1.84 ± 2.7.
In turn, CPSIILPFVYRNGSVTMVPF came in with an amyloid nucleation score of 0.927 ± 0.2.
Next, ALPREWKCMSLLFENGSGNS: “inactive”.
In the case of GFTYTC, the amyloid nucleation score is -0.915 ± 1.1.
The same measure for RCLTPVIRVIYFG: -0.13 ± 0.3; for EDMWKTCTAV: 0.244 ± 0.37.
For the substance RDFWVSRTALMGGYWCWL, the amyloid nucleation score is -0.175 ± 0.35.
The same measure for YDPPTWIHNAMGG: 0.342 ± 0.41.
The same measure for LCCAKLRNAIKVVNQCTCGY: 4.4 ± 0.049; for VERGY: 1.03 ± 0.61.
The same measure for LSKYP: 0.383 ± 0.35; for FCSLLHPFTWYLSEHSMGLG: 0.541 ± 0.57; for ILQIYLMWQVW: 4.85 ± 0.05.
For EDCIMGNWNLCSKGSSGF, the amyloid nucleation score amounted to 0.374 ± 0.3.
The same measure for TIYISVSNRSVDSKDMGYGS: “inactive”; for CLSVLSCSVTSNYWLTS: 7.984 ± 0.056; for NFLPVLVCQPLSWLLIPLLY: 0.309 ± 0.31.
The same measure for ILLVSNEEISLCYCVYLGWM: 5.729 ± 0.056; for TAPKIFLGGIL: “inactive”; for RSRGCPRIFNGAKC: -0.392 ± 0.23.
Substance NVYKFCDRAGLCAVGYYLGT displayed an amyloid nucleation score of 3.02 ± 0.081.
On to TRRYWV, for which the amyloid nucleation score is -0.679 ± 0.32.
LNKTSFPWLKSYKVWRNVMD yielded an amyloid nucleation score of 1.71 ± 0.58.
Next, YLMLCTEIEPKRAGGGMSER: “inactive”; VELSYCMQRMSARIQCGRKP: 2.09 ± 0.43.
For the substance CVAWVSSNPRVGGDIRTWTE, the amyloid nucleation score turned out to be 0.021 ± 0.48.
Turning to VFSSVGGETSYRCMGTASGT, the amyloid nucleation score was -0.231 ± 0.46.
Regarding NFGLPMYYFANDLESTDVVS, the amyloid nucleation score is -0.115 ± 1.4.
The same measure for CKQCRE: -0.01 ± 0.74; for VFIDGLTSYTEIMRL: “inactive”.
Next, TAVGSRGFPRNHLRPKNTSG: -0.309 ± 0.53; TSTVG: “inactive”.
For the substance HCGGNSRSVN, the amyloid nucleation score is -1.11 ± 0.83.
Consider YLSYDT, for which the amyloid nucleation score is -0.411 ± 0.36.
For the substance TDIHTVHRSNLVKVLRKGMN, the amyloid nucleation score is -0.411 ± 0.53.
The same measure for WLGSYIVFLIRMETYDWWIV: -0.114 ± 0.38; for LHLYIMS: “inactive”.
RLTFKYIKFAMS showed an amyloid nucleation score of 0.206 ± 0.36.
The same measure for HFYSGECVFRGACRYQRRGH: 0.402 ± 1.4; for NKLAHSNVDKAKLRDNPQAG: -0.407 ± 1.
The same measure for EDSSTSLLVGMELKRLTVSF: 0.258 ± 0.35; for VHEMNSRTDFYKIKKSGTLV: 0.158 ± 0.29; for FGQCSSLVLT: “inactive”.
NVGRHV yielded an amyloid nucleation score of 0.151 ± 0.9.
Next, MQGFHSW: “inactive”; FDIIK: -0.358 ± 1.4; YVTVEIMGYVTKVVTITLW: -0.419 ± 0.44.
Next, AVGKYLWASVGIAFDRQSIM: -0.837 ± 2.4; LSEYYKAKGDRVTWPQFLTT: -0.453 ± 0.49.
In turn, EQLACQNVVSGCQSA displayed an amyloid nucleation score of 0.277 ± 0.97.
For LCLSSWGLTLSLLIDCIYNR, the amyloid nucleation score was -0.53 ± 0.48.
The same measure for IASLRIIDSIQFISVNSCYG: 0.356 ± 0.4; for RGNVCCTMIC: 6.09 ± 0.074.
Substance GRLPLTKWASMTRVLMYLLR returned an amyloid nucleation score of 0.652 ± 0.47.
On to RVTFLWLCLYQGMVALVNSP, for which the amyloid nucleation score is -0.156 ± 0.84.
On to LIYYNLIGHRVSWGEVGYFV, for which the amyloid nucleation score came out at 0.014 ± 0.35.
Next, LVVFATSVGSGGFKVWGHPG: 0.041 ± 0.45; PVAVVGILHPVFDRRPMRTV: -0.031 ± 0.89; CDMNPSDYDPLCEVSHRIIS: 0.561 ± 0.24.
The same measure for CVTCFTLGSVRGKRTASACW: 0.322 ± 0.18; for SDKLTRFSTRVFR: -0.586 ± 0.39; for VHSGNMMSNFGWAERLHKKA: -0.39 ± 1.2.
Take RYPPG: the amyloid nucleation score was -0.077 ± 1.1.
The same measure for LSAMWKSPMHRERRTWGM: 0.096 ± 0.42; for SYCTGLFWEKRVVIMLVSQV: -0.103 ± 0.53; for YWFDYINPLMRSFAHATAIS: 0.74 ± 0.9.
Next, TCFMLKWIKQRLIDGSVKGR: 0.512 ± 1.2.
The same measure for KSEYWHSCYVANSPYDYRTV: -0.422 ± 1.2; for KNDYSYWL: -0.275 ± 0.65; for MSPLYNDFWYSCRIYKGEVM: 0.606 ± 0.55.
FKKSNLPSIVWRCDAWLGSS: the amyloid nucleation score was found to be 0.334 ± 0.3.
The same measure for EAGHSIFNGNWRGID: -0.536 ± 1.2; for LVGGVTNWWCVEVDQKGQNG: “inactive”; for ISFSSYYNLVLDYLELSQCL: “inactive”.
ASWTHVIFTYPLGKA: the amyloid nucleation score is 0.035 ± 1.
Next, CILGWKYLDVVYDQRRLRCG: 0.939 ± 0.46; YAPLLLSWAYFGV: 1.31 ± 0.25.
The substance TDEVDDIQF had an amyloid nucleation score of 0.552 ± 0.59.
ITNFMGGIRVYRCDASMKGG: the amyloid nucleation score was 0.395 ± 0.28.
The same measure for GSGSVHSWHSLINSSDIFVT: -0.682 ± 0.81; for NPHEDRGLESQSAPGGRKWR: 1.74 ± 0.64; for PYWWS: “inactive”.
The same measure for SLRCVPVVSMRVRSDSSLYK: 0.529 ± 0.9; for MGNTLITLIVGSGAL: 3.44 ± 0.18; for LDNRYFGHIMSLELMFIRPS: 1.19 ± 0.58.
As to PIHGISFFDAYNL, the amyloid nucleation score was -0.128 ± 1.4.
Next, GPFIVIPK: -0.149 ± 0.64; GTLDDTGVTDDNFI: 1.19 ± 0.4; SRGLFCWWRSTWRGVL: -1.28 ± 2.4.
As to KLHNILLWNCLVFLCVMYVW, the amyloid nucleation score result was “inactive”.
Take NPGRLRFTGTMRRTQKIEVA: the amyloid nucleation score is -0.876 ± 0.49.
Turning to TVPIRTTTLSNGAFVWLI, the amyloid nucleation score result is “inactive”.
The same measure for ADEVMKRRQLLINIVEYFMK: 0.2 ± 0.38.
Regarding RLLPGFERGVLYYWA, the amyloid nucleation score was 0.568 ± 0.43.
Next, TRALSFN: -0.873 ± 1.6; LQFLSGYNC: 0.293 ± 0.49.
Consider FIRFLNTVGSWSLWMPYMVF, for which the amyloid nucleation score came out at 0.851 ± 0.42.
In the case of LGYVIYFVFWRRHSFSYSAC, the amyloid nucleation score is -0.407 ± 0.31.
Next, WYCPATH: 0.836 ± 0.97; LIRREHSRL: “inactive”; SAPIDISMQLC: -0.18 ± 1.7.
For MMRTWGLFRVGRWESWRPVR, the amyloid nucleation score was determined as 0.26 ± 0.78.
The substance WICQTGRFNELTHRCCVWFF displayed an amyloid nucleation score of 0.762 ± 0.47.
In the case of CLDVGHIFLGKVEWTGEPW, the amyloid nucleation score was -0.375 ± 0.64.
Turning to LFFECVTLHLYLVKSS, the amyloid nucleation score was -1.1 ± 2.4.
The same measure for WPVYEDKACCHVDAHKGEAT: 0.838 ± 0.48; for DGTVR: 1.62 ± 0.17; for IINKS: -0.766 ± 2.4.
For the substance IKWANREALLLWVELGRLRW, the amyloid nucleation score was -0.66 ± 0.84.
As for CLFLWVTSVL, the amyloid nucleation score worked out at 1.19 ± 0.57.
As for SLINTRVPPLENNAC, the amyloid nucleation score was -0.443 ± 0.51.
Next, NCTRWTLNTDVCSLDRHVPH: -0.5 ± 2.1; LCSMKMIYQKC: 0.177 ± 0.33; MVVVVRTVLQVMRGR: 0.189 ± 0.76.
For the substance ELRCLQVINGLASLSASVWW, the amyloid nucleation score was found to be 0.067 ± 0.64.
As to LMGGNDNWGTTNPEDGILIW, the amyloid nucleation score is -0.347 ± 0.41.
Next, EMYCVYSFRSYFVYGLSLGS: -0.269 ± 0.36; YVMQSATDVETSNSGIS: 0.525 ± 0.84.
SAAVGLLVHQYRSSELQLFN came in with an amyloid nucleation score of 0.136 ± 1.
In the case of FDLRLRWRVA, the amyloid nucleation score was 0.295 ± 0.27.
The same measure for LMTLDYSTYQHRRATDVWDG: -0.65 ± 1.3.
The same measure for ENYTCRTWAPLSGPRIWVGS: 0.661 ± 0.77.
RNASIRVTSQVCYVNS had an amyloid nucleation score of 1.3 ± 0.27.
The same measure for MCDYFYNIVFVKCCALWCLD: 4.01 ± 0.069; for YNCLYDRPFRMMSQCLNIGM: -1.59 ± 1.2; for GKFSKDKILLVSYHKAF: 0.886 ± 0.39.

(Values after the supplement of paper PMC12042874.)
